In the supplement of paper PMC12042874 one finds amyloid nucleation score data, which are given here for 141 substances.

± gives the uncertainty stated by the source.

This data set is described as follows: amyloid nucleation score (Sup35N fusion, yeast selection) (log enrichment); library NNK1; higher = more nucleation; inactive = no reads after selection. In short, it runs like this:
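The nucleation score is the log enrichment of output over input reads, calculated with DiMSum and centred on the mode score of non-aggregating sequences. Sequences with under 100 input reads were excluded. Reads came from Illumina sequencing of plasmid inserts from psi-negative yeast expressing Sup35N fused to peptides of 20 random codons, induced 24 hours with 100 μM copper sulfate and grown 7 days at 30°C without adenine and uracil.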
In turn, TLRCDFLPRNKF came in with an amyloid nucleation score of -0.595 ± 1.4.

For the substance TLRSTWFRMCHTISA, the amyloid nucleation score is 0.441 ± 0.25.

Regarding TLVLYVKRCWESGLISNECF, the amyloid nucleation score is -0.699 ± 1.5. For TLYPHTGEGGKRLDLGCLSR the value was 1.39 ± 0.48; for TMFLVSRDFRGIVLYWITTF, -0.364 ± 0.78; for TMSFSFF, 0.855 ± 0.28.

Consider TMYWITQKVEKSSHMVCRVT, for which the amyloid nucleation score was 2.61 ± 0.078.

TNINSSTDKRLPTET registered an amyloid nucleation score of -0.013 ± 0.5.

Turning to TNRPLVLTDNVNKSLKMRLP, the amyloid nucleation score came out at 0.638 ± 0.27.

Consider TNSPKKGMNGYGFNATVWTS, for which the amyloid nucleation score was 0.413 ± 0.9.

With TNTFFLTILHPRFVKMGPCW, the amyloid nucleation score turned out to be 4.55 ± 0.1. In the case of TNVVRVSLCFYMY it was 8.776 ± 0.069. In the case of TNYDFMVCCFKPSMAYGKCM it was -0.354 ± 0.63. With TPFVMIKDGKADFVILNVYH, the amyloid nucleation score is 7.077 ± 0.055. In the case of TPGNVG, the amyloid nucleation score stood at 0.514 ± 0.26. TPLKEHLLNVVRMLGKIDCD came in with an amyloid nucleation score of 0.177 ± 0.42. In the case of TPSMKWFPKLLVLVSSTRHY it was -0.51 ± 0.44. For the substance TPSTQLALWAIYFHRRLFES, the amyloid nucleation score is -0.54 ± 1.3. In the case of TPTSSIPTPPRFPALTC it was -0.72 ± 0.41; in that of TQIAESYLVQANNSAEATAA, -0.32 ± 1.4; in that of TQSCF, 0.074 ± 0.84. In the case of TQSTLGSMTIASDYCTTE it was 1.42 ± 0.34; in that of TRALVFRQYYIAPVHCYYLG, 3.54 ± 0.19; in that of TRGTPFEYLATGG, 0.607 ± 0.71.

On to TRLCWFWFNA, for which the amyloid nucleation score was 0.066 ± 0.41. Consider TRLLSYFDTRRELNCKVYYN, for which the amyloid nucleation score was -0.053 ± 0.66. As for TRPLPWTQP, the amyloid nucleation score worked out at 0.242 ± 0.47. In the case of TRQNMFGIHHPWYNRRIS it was -0.458 ± 0.42; in that of TRTESVMVLWRRMAVGGCGR, 0.362 ± 0.65; in that of TRTNELF, 0.498 ± 0.33. In turn, TRVEFEQGVVFGELYSVFRV registered an amyloid nucleation score of 0.351 ± 0.39. In the case of TRVGLVPSLGDRSDNYIVRI it was 0.087 ± 0.39; in that of TRWCVRERVSFKRAGQCDRV, “inactive”; in that of TRWIRYTFRFS, 1.61 ± 0.13. With TSAVQIVTLQLVLSWMRYHM, the amyloid nucleation score came to 1.02 ± 0.28.

As for TSAVSSCDFRKRWCCSSFHW, the amyloid nucleation score came to 0.665 ± 0.24.

As to TSCFGVWRHVLSRHSFRTSV, the amyloid nucleation score is 4.17 ± 0.13. TSDGHFSSQVDSVDESKVGE registered an amyloid nucleation score of -0.534 ± 0.46.

TSEDMC returned an amyloid nucleation score of -1.18 ± 2.1. In the case of TSFVSETGFTWVCVFLVAGT it was 0.616 ± 1.1; in that of TSGFKLGRSGGYVCRS, 1.41 ± 0.78; in that of TSHAVFNTVINLVVFVDQHC, 8.111 ± 0.055. In the case of TSILAKNIIYCHYVGFPLGC it was 5.97 ± 0.093. The substance TSIMRVTILLISGGRLDVFL displayed an amyloid nucleation score of -0.896 ± 1.

Regarding TSLCMIHYVK, the amyloid nucleation score was -0.069 ± 1.1. In the case of TSNCGTSLIDHSVRLLMLQR it was -0.163 ± 0.49. The substance TSNNLFKRALVGDYNKVAYR gave an amyloid nucleation score of 0.572 ± 0.75.

The substance TSPTYAYCYCLSTNRRQKCL showed an amyloid nucleation score of -0.957 ± 1.1.

Substance TSRSSVFRVAFHCGGSDSLV came in with an amyloid nucleation score of 0.039 ± 0.43. In the case of TSSDCLLDSSIFNVGKFWYV it was 0.019 ± 0.53; in that of TSSFFTDIDFNG, -0.363 ± 0.7. In the case of TSSWDSPCYQEAVFIGGYYI it was 0.619 ± 0.47; in that of TTALFWSRRPSFGDLYRGFN, 3.86 ± 0.082.

Consider TTCGCKMHVSAHR, for which the amyloid nucleation score worked out at 0.425 ± 1.1. Take TTCSVVRDFYSLIFCTKCPY: the amyloid nucleation score is 4.03 ± 0.063. In the case of TTLNEELYSLVVSRDWGDSN it was “inactive”; in that of TTLWLVPYVC, 0.529 ± 0.58.

The substance TTMIRSYFREDYGQGPLMSW came in with an amyloid nucleation score of 0.51 ± 1.2. In turn, TTRAHEVDTYLYFHFGVGRT returned an amyloid nucleation score of 2.84 ± 0.17.

Consider TTRCVFSPDNVDTDY, for which the amyloid nucleation score entry was “inactive”. For TTSRAWFYL the value was -0.353 ± 1; for TTTNCRI, 0.057 ± 0.23.

Regarding TTVLRGLKTP, the amyloid nucleation score is -0.825 ± 1.5. In the case of TTVPSNV, the amyloid nucleation score is -0.189 ± 1.7.

On to TTYRCNVKYQYFMFNDIEFF, for which the amyloid nucleation score was found to be 3.54 ± 0.21. For TVEYNRPFCRFIFCGSGYRH, the amyloid nucleation score was -1.2 ± 0.92. TVGSIQKAEYWIHGYMATVN came in with an amyloid nucleation score of 0.169 ± 0.29.

TVHSLV: the amyloid nucleation score is -0.276 ± 0.38. TVHVGTVPKFSYRFGIMGTE gave an amyloid nucleation score of -0.482 ± 0.66. TVIEIKL yielded an amyloid nucleation score of 1.28 ± 0.85. TVIYSNYAVICMGSMSQVDT returned an amyloid nucleation score of 7.762 ± 0.059.

TVLNFKAQYRSSPMLAH registered an amyloid nucleation score of 0.862 ± 0.39.

TVNHFGLEPCVTKIMGLY returned an amyloid nucleation score of 0.213 ± 0.74. The substance TVNVY came in with an amyloid nucleation score of 0.829 ± 0.62. In the case of TVNYTCYYGYIIFGYASSVK it was 3.63 ± 0.076; in that of TVPLEIIL, 0.382 ± 0.52; in that of TVRCSMGYILYRWVHSRLGR, 1.4 ± 0.48. For TVRFHYQGFTVS the value was -0.236 ± 0.61; for TVRGSAFLIKWKLI, -0.86 ± 0.9; for TVRLTRTRV, -0.474 ± 0.86.

In turn, TVRNYHFVLV came in with an amyloid nucleation score of 1.46 ± 0.33. In the case of TVSKLSCYNVVDPTIWNLSD it was 0.236 ± 0.69; in that of TVSLGVAAVMFPR, 0.95 ± 0.36; in that of TVSMSMAYHVK, 2.27 ± 0.25.

TVTGIAKFHVVSQANY returned an amyloid nucleation score of -0.3 ± 0.98. TVVTYVRNNFKEVHSCVEVS yielded an amyloid nucleation score of -0.607 ± 0.47.

For the substance TVYYFG, the amyloid nucleation score was 1.18 ± 0.19. In the case of TWIKILSGPLYKFCI it was -0.2 ± 0.56. In the case of TWIMIGDHFVAGLGYRERD it was -0.893 ± 0.43. Take TWLQPLNRTMNWMTSTAGFR: the amyloid nucleation score result was “inactive”. Turning to TWNNKFRPLVEHGYSAS, the amyloid nucleation score is -0.526 ± 0.85. In the case of TWSYGLASDEVGPDAVVIVY it was 0.495 ± 1. Take TWYHGSRMSLRVTGRILQCG: the amyloid nucleation score is -0.43 ± 1.1. In the case of TYALITADI it was 0.193 ± 0.18; in that of TYARLLNCSAYSTTF, 0.048 ± 0.55. In the case of TYDGSKAIVALSKGNKN it was 0.915 ± 0.51.

Substance TYEYTRWGWYYLS gave an amyloid nucleation score of 1.11 ± 0.12.

In the case of TYGEYRTYISYH, the amyloid nucleation score amounted to 0.389 ± 0.43. TYGMYFLFSYVSVCQY showed an amyloid nucleation score of 2.3 ± 0.13. The substance TYHVSEV displayed an amyloid nucleation score of -0.175 ± 0.24.

TYNEDEVPCLMLASDVRFSS showed an amyloid nucleation score of 0.372 ± 0.64. For TYQTVSKKSEFIMPFGLCSN, the amyloid nucleation score is -0.011 ± 0.17. TYRNHYCKDKAL showed an amyloid nucleation score of 0.175 ± 0.75.

TYRVLGWMYTCW yielded an amyloid nucleation score of -0.809 ± 1.1.

Substance TYSGYFVLAIISPRLDRLFT registered an amyloid nucleation score of -1.1 ± 0.58. For TYSRARAQSIMFVRLFKACL the value was 0.643 ± 0.34; for TYTGFYCVRKLILVRRVSVW, -0.897 ± 1.6; for TYVSNNPKGNPTLHAYFSF, 0.68 ± 0.97.

Take TYWNVLNAVGQALPSIYGIG: the amyloid nucleation score was found to be 0.955 ± 0.63.

TYWQVARTSPSF: the amyloid nucleation score amounted to 0.547 ± 0.33. In the case of TYWYSHINFLYYIASFVWSP it was “inactive”. TYYAAMRDGFVYHTKGLMAS registered an amyloid nucleation score of -0.209 ± 1. For VADAPMR the value was 0.944 ± 0.9. For VAIRTKPLYLDEYIFMDHMP the value was 0.459 ± 0.68; for VAITCLKIANGDRGVLQTLC, 0.264 ± 0.86. For VAPVEYICELTLWA the value was -1.22 ± 2.7; for VARTW, 0.602 ± 0.57; for VATYLLDHVYLNSCQSHCAM, 1 ± 0.35. Take VAWSPLRSSKPGTLSTVGDT: the amyloid nucleation score worked out at 0.83 ± 1.1. In the case of VCHAVRISISSSASTLAE it was -0.122 ± 0.33; in that of VCIECTVAVKFHGYMRHSCC, 1.09 ± 0.54; in that of VCLLHNIVKGFARYINSHK, 0.423 ± 0.5. The substance VCLVVEIG returned an amyloid nucleation score of 1.04 ± 0.93. In the case of VCSRLDSEQHDHECASQELM it was 0.106 ± 0.99. In the case of VCTCIFRFQFLILCVRVCEL it was 0.293 ± 0.85; in that of VCVQILAASTWM, 0.844 ± 0.42; in that of VCWLGIKCVRVISNWLCAQS, -1.04 ± 1.6. For VCYAKTAVFSMCGFIWSR the value was 0.163 ± 0.77. Regarding VDGGMLSHYYYC, the amyloid nucleation score is 0.258 ± 0.23. In the case of VDGLHLNSYYEPVSMMSIVV it was -0.336 ± 0.43; in that of VDISIVWDVPHQVLTGGFY, -0.531 ± 0.29; in that of VDLILRRFEMRSDSLFGLWE, -0.481 ± 0.58.

With VDNNARDTSVGSALENMWVL, the amyloid nucleation score is 1.16 ± 0.62. In the case of VDPAD it was 0.553 ± 0.43; in that of VDPYQVNYLNKLVTENYRVS, 0.097 ± 0.33. In the case of VDRFEVLTYLKE it was -0.175 ± 1; in that of VDRVGIQYVLEWCSRRSGQV, 0.04 ± 1.4. In the case of VDVHVGCRTIRL it was 0.034 ± 0.32; in that of VECVSVQRFGAQCLSCYPSW, -0.07 ± 0.55.

In turn, VEFYRYFGWCPNYLPQHQWL returned an amyloid nucleation score of -0.148 ± 0.56.

In the case of VENTPSCSDISSDLMGREIH, the amyloid nucleation score is -0.87 ± 0.35.
